According to PMC2896269 (The Journal of neuroscience : the official journal of the …, 2010):

Target: HA-neuroligin-1(+B) (UniProt Q62765 46-843)
Assay: immunostaining of cells or tissue

Chain of HA-neuroligin-1(+B) (Q62765 46-843): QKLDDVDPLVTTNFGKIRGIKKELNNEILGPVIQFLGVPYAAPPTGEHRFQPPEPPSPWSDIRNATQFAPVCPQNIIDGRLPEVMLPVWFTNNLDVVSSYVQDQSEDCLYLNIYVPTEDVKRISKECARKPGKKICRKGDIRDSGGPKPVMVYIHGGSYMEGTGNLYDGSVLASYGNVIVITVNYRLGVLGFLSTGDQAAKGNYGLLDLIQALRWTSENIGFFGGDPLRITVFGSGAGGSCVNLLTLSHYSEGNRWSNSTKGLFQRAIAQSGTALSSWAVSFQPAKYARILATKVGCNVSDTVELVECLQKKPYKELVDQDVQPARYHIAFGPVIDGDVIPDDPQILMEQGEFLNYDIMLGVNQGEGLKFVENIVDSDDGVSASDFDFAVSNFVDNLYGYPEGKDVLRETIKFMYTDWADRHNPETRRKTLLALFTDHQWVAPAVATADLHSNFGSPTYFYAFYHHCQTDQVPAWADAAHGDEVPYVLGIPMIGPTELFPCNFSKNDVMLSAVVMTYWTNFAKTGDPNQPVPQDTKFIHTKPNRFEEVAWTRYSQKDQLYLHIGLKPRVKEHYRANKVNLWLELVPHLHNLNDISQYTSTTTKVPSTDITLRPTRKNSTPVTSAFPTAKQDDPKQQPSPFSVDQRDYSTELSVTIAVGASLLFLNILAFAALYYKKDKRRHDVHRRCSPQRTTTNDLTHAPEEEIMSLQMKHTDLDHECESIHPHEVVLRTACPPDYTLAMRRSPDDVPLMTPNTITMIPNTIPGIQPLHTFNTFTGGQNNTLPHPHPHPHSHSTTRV

- Kd: 26.9 nM
B1: Nrx1β(+S4)-Fc (Fc fusion)
chain: not shown
